Reference: PMC10922747 (Cell, 2024)

B1: mouse PNMA2 (mPNMA2) protein (full length) (natural protein, UniProt Q8BHK0 1-365, looked up)
chain: MAVALLEEWCKIMGVDVQKSLLVVDIPVDCGEPEIQTVLQEALKCVGSYRLLGKIFQKQDNTSVVLVELMEDTDMSVVPSEVQGKGGVWKVIFKTPNQDTEFLQRLNLFLEKEGQTVAGMFRALKHEGVSPATPPCTSPELLAHLTGQAMVHGQRPLLPVKYCKMRIFSGSTAAAPEEEPFEVWLEQATEIAKEWPIPEAEKKRWVAESLRGPALDLMHIVQADNPSISVGECLEAFKQVFGSTESRRTSQVKYLRTYQQEGEKISAYVLRLETLLRRAVEKRAIPRNIADQVRLEQVMAGANLGNVLWCRLQELKDQGPLPTFLQLMKVIREEEEEEDAYFEQESREEPGEREGSGCWNNSRNN
B2: human PNMA2 (hPNMA2) protein (full length) (natural protein, UniProt Q9UL42 1-364, looked up)
chain: MALALLEDWCRIMSVDEQKSLMVTGIPADFEEAEIQEVLQETLKSLGRYRLLGKIFRKQENANAVLLELLEDTDVSAIPSEVQGKGGVWKVIFKTPNQDTEFLERLNLFLEKEGQTVSGMFRALGQEGVSPATVPCISPELLAHLLGQAMAHAPQPLLPMRYRKLRVFSGSAVPAPEEESFEVWLEQATEIVKEWPVTEAEKKRWLAESLRGPALDLMHIVQADNPSISVEECLEAFKQVFGSLESRRTAQVRYLKTYQEEGEKVSAYVLRLETLLRRAVEKRAIPRRIADQVRLEQVMAGATLNQMLWCRLRELKDQGPPPSFLELMKVIREEEEEEASFENESIEEPEERDGYGRWNHEGDD

Legend:
cryo-EM structure = biological target: the molecule itself; assay: cryo-EM structure
negative-stain EM = biological target: the molecule itself; assay: negative-stain EM

Row | Protein | stoichiometry N (cryo-EM structure) | binding result (negative-stain EM)
1 | B1 | 60 | 
2 | B2 |  | binds
